Measurements taken from publication PMC5898484, “Two Differential Binding Mechanisms of FG-Nucleoporins and Nuclear Transport Receptors” (Cell Reports, 2018).
One block for each molecule: values may come before it.

Legend:
[1] = biological target: FG-Nup214 labelled for stopped-flow anisotropy; experiment: stopped-flow fluorescence, dissociation; preformed FG-Nup⋅NTR complex rapidly mixed with 100× (2 μM) excess of unlabeled FG-Nup
[2] = biological target: FG-Nup214^117 proline double mutant A1927P/A2017P; experiment: single-molecule FRET (smFRET) titration; fractions of bound (low E_FRET) and unbound (high E_FRET) FG-Nup214^117 as a function of CRM1 concentration, with 1 μM RanGTP
[3] = biological target: FG-Nup214^117 (117-aa fragment of FG-Nup214), wild type, labelled for FRET; experiment: as above
[4] = biological target: FG-Nup214^117 proline triple mutant A1927P/A2017P/A2019P; experiment: as above
[5] = biological target: FG-Nup214^Glc labelled for stopped-flow kinetics; experiment: stopped-flow fluorescence anisotropy; association under pseudo-first order conditions (>10-fold excess of the NTR); kobs from single exponential fits, kon from the slope of kobs versus NTR concentration; excitation 532 nm
[6] = biological target: FG-Nup214 labelled for stopped-flow anisotropy; experiment: as above
[7] = biological target: FG-Nup153 labelled for stopped-flow kinetics; experiment: stopped-flow fluorescence, dissociation; preformed FG-Nup⋅NTR complex rapidly mixed with 100× (2 μM) excess of unlabeled FG-Nup
[8] = biological target: FG-Nup153^Glc labelled for stopped-flow kinetics; experiment: stopped-flow fluorescence anisotropy; association under pseudo-first order conditions (>10-fold excess of the NTR); kobs from single exponential fits, kon from the slope of kobs versus NTR concentration; excitation 532 nm
[9] = biological target: T1, CRM1 (export receptor, exportin) (UniProt O14980 1-1071); experiment: stopped-flow fluorescence (donor signal of a FRET-labelled sample); association; donor signal change of FRET-labelled FG-Nup214 instead of anisotropy; conditions: both partners purified
T1 construct: exportin CRM1; Construct details in the Supplemental Experimental Procedures; also called exportin CRM1
T1 sequence (O14980 whole entry): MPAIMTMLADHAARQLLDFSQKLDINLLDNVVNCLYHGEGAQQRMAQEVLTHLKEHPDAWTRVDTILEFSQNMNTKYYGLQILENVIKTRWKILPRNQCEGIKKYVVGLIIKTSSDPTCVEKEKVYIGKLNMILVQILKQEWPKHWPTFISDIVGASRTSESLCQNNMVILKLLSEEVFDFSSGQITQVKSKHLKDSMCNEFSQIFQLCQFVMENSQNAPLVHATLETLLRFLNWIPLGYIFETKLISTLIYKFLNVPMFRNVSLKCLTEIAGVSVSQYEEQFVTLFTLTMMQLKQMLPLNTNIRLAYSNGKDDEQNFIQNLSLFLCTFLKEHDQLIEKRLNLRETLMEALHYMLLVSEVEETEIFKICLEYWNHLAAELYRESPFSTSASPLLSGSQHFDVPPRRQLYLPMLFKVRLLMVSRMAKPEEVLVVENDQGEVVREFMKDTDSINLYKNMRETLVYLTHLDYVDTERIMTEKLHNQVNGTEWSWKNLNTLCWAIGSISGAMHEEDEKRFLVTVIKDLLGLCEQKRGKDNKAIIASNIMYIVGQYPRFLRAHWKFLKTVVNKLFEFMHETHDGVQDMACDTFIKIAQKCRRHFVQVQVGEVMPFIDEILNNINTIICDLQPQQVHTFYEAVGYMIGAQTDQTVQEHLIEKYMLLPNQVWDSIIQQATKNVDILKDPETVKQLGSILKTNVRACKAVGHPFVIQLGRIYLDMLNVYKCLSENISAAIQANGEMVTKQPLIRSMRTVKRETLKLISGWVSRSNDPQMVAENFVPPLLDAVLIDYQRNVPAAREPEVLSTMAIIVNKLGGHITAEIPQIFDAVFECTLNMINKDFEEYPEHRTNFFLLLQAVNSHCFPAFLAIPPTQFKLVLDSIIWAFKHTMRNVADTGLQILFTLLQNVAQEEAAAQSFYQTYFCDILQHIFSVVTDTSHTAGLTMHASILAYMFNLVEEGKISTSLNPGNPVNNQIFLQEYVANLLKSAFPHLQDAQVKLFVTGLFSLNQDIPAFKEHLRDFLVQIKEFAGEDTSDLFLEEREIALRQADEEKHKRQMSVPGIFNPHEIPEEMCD

Molecule: CRM1⋅RanGTP complex (from UniProt O14980 1-1071; P62826 1-216)
complex half-life [1]: 5 s | koff [1]: 0.14 s⁻¹ | Kd [2]: 53 nM | Kd [3]: 35 nM | Kd [4]: 222 nM | kon [5]: 1.3e+07 M⁻¹ s⁻¹ | kon [6]: 2.1e+07 M⁻¹ s⁻¹

B1: FG-Nup214 (FG domain of Nup214), double-labelled for FRET (domain or fragment)
chain: ATTTSVAPPAATSTSSTAVFGSLPVTSAGSSGVISFGGTSLSAGKTSFSFGSQQTNSTVPPSAPPPTTAATPLPTSFPTLSFGSLLSSATTPSLPMSAGRSTEEATSSALPEKPGDSEVSASAASLLEEQQSAQLPQAPPQTSDSVKKEPVLAQPAVSNSGTAASSTSLVALSAEATPATTGVPDARTEAVPPASSFSVPGQTAVTAAAISSAGPVAVETSSTPIASSTTSIVAPGPSAEAAAFGTVTSGSSVFAQPPAASSSSAFNQLTNNTATAPSATPVFGQVAASTAPSLFGQQTGSTASTAAATPQVSSSGFSSPAFGTTAPGVFGQTTFGQASVFGQSASSAASVFSFSQPGFSSVPAFGQPASSTPTSTSGSVFGAASSTSSSSSFSFGQSSPNTGGGLFGQSNAPAFGQSPGFGQGGSVFGGTSAATTTAATSGFSFCQASGFGSSNTGSVFGQAASTGGIVFGQQSSSSSGSVFGSGNTGRGGGFFSGLGGKPSQDAANKNPFSCASGGFGSTATSNTSNLFGNSGAKTFGGFASSSFGEQKPTGTFSSGGGSVASQGFGFSSPNKTGGFGAAPVFGSPPTFGGSPGFGGVPAFGSAPAFTSPLGSTGGKVFGEGTAAASAGGFGFGSSSNTTSFGTLASQNAPTFGSLSQQTSGFGTQSSGFSGFGSGTGGFSFGSNNSSVQGFGGWRS
modifications: Alexa594-maleimide (acceptor) on the Cys introduced at 1,905; p-acetylphenylalanine (AcF) at 2,043 labelled with Alexa488-hydroxylamine (donor)
kon [9]: 3e+07 M⁻¹ s⁻¹

The next lines start with the values.

kon [5]: 3.8e+07 M⁻¹ s⁻¹ | kon [6]: 4e+07 M⁻¹ s⁻¹
Molecule: CRM1 (export receptor, exportin) (from UniProt O14980 1-1071)

complex half-life [7]: 0.08 s | koff [7]: 8.7 s⁻¹ | kon [8]: 8.5e+08 M⁻¹ s⁻¹
Molecule: Importinβ (import receptor) (from UniProt Q14974 1-876)
